PMC3656769

B1: Transferrin receptor 2 (hTfR2): 3-Mut (protein)
parent chain: MERLWGLFQRAQQLSPRSSQTVYQRVEGPRKGHLEEEEEDGEEGAETLAHFCPMELRGPEPLGSRPRQPNLIPWAAAGRRAAPYLVLTALLIFTGAFLLGYVAFRGSCQACGDSVLVVSEDVNYEPDLDFHQGRLYWSDLQAMFLQFLGEGRLEDTIRQTSLRERVAGSAGMAALTQDIRAALSRQKLDHVWTDTHYVGLQFPDPAHPNTLHWVDEAGKVGEQLPLEDPDVYCPYSAIGNVTGELVYAHYGRPEDLQDLRARGVDPVGRLLLVRVGVISFAQKVTNAQDFGAQGVLIYPEPADFSQDPPKPSLSSQQAVYGHVHLGTGDPYTPGFPSFNQTQFPPVASSGLPSIPAQPISADIASRLLRKLKGPVAPQEWQGSLLGSPYHLGPGPRLRLVVNNHRTSTPINNIFGCIEGRSEPDHYVVIGAQRDAWGPGAAKSAVGTAILLELVRTFSSMVSNGFRPRRSLLFISWDGGDFGSVGSTEWLEGYLSVLHLKAVVYVSLDNAVLGDDKFHAKTSPLLTSLIESVLKQVDSPNHSGQTLYEQVVFTNPSWDAEVIRPLPMDSSAYSFTAFVGVPAVEFSFMEDDQAYPFLHTKEDTYENLHKVLQGRLPAVAQAVAQLAGQLLIRLSHDRLLPLDFGRYGDVVLRHIGNLNEFSGDLKARGLTLQWVYSARGDYIRAAEKLRQEIYSSEERDERLTRMYNVRIMRVEFYFLSQYVSPADSPFRHIFMGRGDHTLGALLDHLRLLRSNSSGTPGATSSTGFQESRFRRQLALLTWTLQGAANALSGDVWNIDNNF
B2: Transferrin receptor 2 (hTfR2): N754A (protein)
parent chain: B1 parent chain
B3: Transferrin receptor 2 (hTfR2): N339A (protein)
parent chain: B1 parent chain
B4: Transferrin receptor 2 (hTfR2): N240A (protein)
parent chain: B1 parent chain

Columns and labels:
Details in all cases: glycan lost; control: wild type
[1] = cell surface biotinylation, Western, HEK 293
[2] = nonreducing SDS-PAGE Western, Hep3B stable cells
[3] = confocal immunofluorescence, nonpermeabilized HEK 293
[4] = surface biotinylation, FLAG IP, nonreducing Avidin-HRP blot, Hep3B
[5] = Western after 12 h holo-Tf, Hep3B transient and stable

| Protein | localisation_or_trafficking [1] | oligomerisation [2] | localisation_or_trafficking [3] | localisation_or_trafficking [4] | other: holo-Tf-induced stabilisation (protein level), fold_change [5] |
| --- | --- | --- | --- | --- | --- |
| B1 | no change | decreases | no change | no change | – |
| B2 | – | – | – | – | no change |
| B3 | – | – | – | – | no change |
| B4 | – | – | – | – | no change |
